In patent US20230220381:

Assays:
[1] = target: T1, Thrombin (Homo sapiens) (UniProt P00734+P00734); experiment: FP
[2] = target: T1, Thrombin (Homo sapiens); experiment: MST; details: Phe at library positions 5 and 3, C12 at position 4, Nap at position 1 (3' end) (unnatural monomers); 2Bind, N=2, 100 nM aptamer, buffer without Triton X; unit given as nmol

For “CGTCGAGGCCCGTGCTTACCCGTGACCTTCTTAGGAGGTTGGNGTGGNTGGTTTTTACACGTCACGCCTTTTTTTTT [TBA2F]”, the Kd ([1]; branched DNA-encoded construct with BU, aptamer branch GGTTGGC12GTGGAlkTGGTTTTT (C12 and Alk unnatural phosphodiester monomers), same buffer as TBA1F) was 89 nM.
Work on GGGTGGPHECTGGPHETGGNAP [Aptamer3] yielded a Kd ([1]; Phe at library positions 5 and 3, C12 at position 4, Nap at position 1 (3' end) (unnatural monomers), fluorescence anisotropy with 0.1 mg/mL sheared salmon sperm DNA, N=3, unit given as nmol) of 5 nM, a Kd ([1]; Phe at library positions 5 and 3, C12 at position 4, Nap at position 1 (3' end) (unnatural monomers), fluorescence anisotropy, thrombin binding buffer, unit given as nmol) of 6 nM and a Kd [2] of 20 nM.
For GGTPTGGPHECTGGTTGGG [Aptamer2], the Kd ([1]; Trp at library position 7, Phe at position 5, C12 at position 4 (unnatural monomers), fluorescence anisotropy, unit given as nmol) was 10 nM and the Kd ([1]; Trp at library position 7, Phe at position 5, C12 at position 4 (unnatural monomers), with 0.1 mg/mL salmon sperm DNA, N=3, unit given as nmol) was 10 nM.
GGTTGGPHEGTGGTTGGT [Aptamer1] gave a Kd ([1]; Phe unnatural monomer at library position 5, fluorescence anisotropy, unit given as nmol) of 26 nM.
Work on “GGTTGGTGTGGTTGGNAP [Aptamer4 of Table 9 (Nap at position 1; Aptamer5 in FIG. 12)]” yielded a Kd ([1]; Nap unnatural monomer at library position 1 (3' end), unit given as nmol, Aptamer4/5 naming swapped in FIG. 12, Table 9 sequence used) of 24 nM.
